# Laboratory results from US20220127313A1.
# Non-standard residues stand in square brackets, D forms with d. No end group written: not given here. pS = N[C@@H](COP(=O)(O)O)C(=O)O
# Key:
# Experiment in all cases: cell-based or functional assay
# [1] = target: p38 MAPK β isoform, Q15759
# [2] = target: p38 MAPK γ isoform, P53778
# [3] = target: p38 MAPK δ isoform, O15264
# p38 MAPK δ isoform, O15264, sequence (O15264 whole entry, stated change not applied, canonical isoform): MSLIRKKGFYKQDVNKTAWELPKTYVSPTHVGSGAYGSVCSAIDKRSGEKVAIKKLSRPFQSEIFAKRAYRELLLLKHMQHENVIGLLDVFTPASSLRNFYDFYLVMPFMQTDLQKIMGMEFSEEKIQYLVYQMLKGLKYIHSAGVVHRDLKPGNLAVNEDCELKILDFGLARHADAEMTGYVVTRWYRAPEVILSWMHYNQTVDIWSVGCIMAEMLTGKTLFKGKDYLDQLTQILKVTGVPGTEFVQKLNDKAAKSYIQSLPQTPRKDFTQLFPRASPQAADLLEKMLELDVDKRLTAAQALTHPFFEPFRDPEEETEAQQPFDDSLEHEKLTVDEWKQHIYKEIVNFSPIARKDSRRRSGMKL
# p38 MAPK γ isoform, P53778, sequence (P53778 whole entry, canonical isoform): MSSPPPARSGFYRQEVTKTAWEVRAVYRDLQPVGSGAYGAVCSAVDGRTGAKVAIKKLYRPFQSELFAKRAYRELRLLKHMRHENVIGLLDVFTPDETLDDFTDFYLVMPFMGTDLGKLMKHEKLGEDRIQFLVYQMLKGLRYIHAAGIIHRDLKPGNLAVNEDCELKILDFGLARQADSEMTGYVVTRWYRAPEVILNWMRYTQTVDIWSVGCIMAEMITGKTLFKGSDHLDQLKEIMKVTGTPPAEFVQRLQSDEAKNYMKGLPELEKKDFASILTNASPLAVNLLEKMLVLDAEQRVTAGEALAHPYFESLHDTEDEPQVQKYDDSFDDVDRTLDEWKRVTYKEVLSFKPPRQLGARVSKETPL
# p38 MAPK β isoform, Q15759, sequence (Q15759 whole entry, canonical isoform): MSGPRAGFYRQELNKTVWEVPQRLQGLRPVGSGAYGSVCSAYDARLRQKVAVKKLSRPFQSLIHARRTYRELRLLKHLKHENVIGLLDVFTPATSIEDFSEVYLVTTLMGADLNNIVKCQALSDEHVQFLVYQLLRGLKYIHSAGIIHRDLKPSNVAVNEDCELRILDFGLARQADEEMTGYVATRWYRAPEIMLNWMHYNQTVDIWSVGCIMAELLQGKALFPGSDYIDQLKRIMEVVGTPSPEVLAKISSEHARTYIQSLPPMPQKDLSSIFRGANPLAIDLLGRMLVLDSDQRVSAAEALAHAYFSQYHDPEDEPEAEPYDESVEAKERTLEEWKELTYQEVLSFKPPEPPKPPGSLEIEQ
binder,measurement,setting,value
"YARAAARQARASPAARRA[pS]AILPG [NiPp polypeptide (Niban phosphopeptide), …(pS)AILPG]","% inhibition in kinase profiling screen, NiPp at 100 µM",[1],5%
same,"% inhibition in kinase profiling screen, NiPp at 100 µM",[2],3%
same,"% inhibition in kinase profiling screen, NiPp at 100 µM",[3],3%
